Measured values as given in PMC11098746 (2024).

B1: ADP307 (protein)
chain: MALSVPLLLGLLGLAVAEPAVYFKEQFLDGDGWTSRWIESKHKSDFGKFVLSSGKFYGDEEKDKGLQTSQDARFYALSASFEPFSNKGQTLVVQFTVKHEQNIDCGGGYVKLFPNSLDQTDMHGDSEYNIMFGPDICGPGTKKVHVIFNYKGKNVLINKDIRCKDDEFTHLYTLIVRPDNTYEVKIDNSQVESGSLEDDWDFLPPKKIKDPDASKPEDWDERAKIDDPTDSKPEDWDKPEHIPDPDAKKPEDWDEEMDGEWEPPVIQNPEYKGEWKPRQIDNPDYKGTWIHPEIDNPEYSPDPSIYAYDNFGVLGLDLWQVKSGTIFDNFLITNDEAYAEEFGNETWGVTKAAEKQMKDKQDEEQRLKEEEEDKKRKEEEEAEDKEDDEDKDEDEEDEEDKEEDEEEDVPGQAKDEL
modifications: bait human Fc-tagged dimer
B2: ADP141 (protein)
chain: MGRLASRPLLLALLSLALCRGRVVRVPTATLVRVVGTELVIPCNVSDYDGPSEQNFDWSFSSLGSSFVELASTWEVGFPAQLYQERLQRGEILLRRTANDAVELHIKNVQPSDQGHYKCSTPSTDATVQGNYEDTVQVKVLADSLHVGPSARPPPSLSLREGEPFELRCTAASASPLHTHLALLWEVHRGPARRSVLALTHEGRFHPGLGYEQRYHSGDVRLDTVGSDAYRLSVSRALSADQGSYRCIVSEWIAEQGNWQEIQEKAVEVATVVIQPSVLRAAVPKNVSVAEGKELDLTCNITTDRADDVRPEVTWSFSRMPDSTLPGSRVLARLDRDSLVHSSPHVALSHVDARSYHLLVRDVSKENSGYYYCHVSLWAPGHNRSWHKVAEAVSSPAGVGVTWLEPDYQVYLNASKVPGFADDPTELACRVVDTKSGEANVRFTVSWYYRMNRRSDNVVTSELLAVMDGDWTLKYGERSKQRAQDGDFIFSKEHTDTFNFRIQRTTEEDRGNYYCVVSAWTKQRNNSWVKSKDVFSKPVNIFWALEDSVLVVKARQPKPFFAAGNTFEMTCKVSSKNIKSPRYSVLIMAEKPVGDLSSPNETKYIISLDQDSVVKLENWTDASRVDGVVLEKVQEDEFRYRMYQTQVSDAGLYRCMVTAWSPVRGSLWREAATSLSNPIEIDFQTSGPIFNASVHSDTPSVIRGDLIKLFCIITVEGAALDPDDMAFDVSWFAVHSFGLDKAPVLLSSLDRKGIVTTSRRDWKSDLSLERVSVLEFLLQVHGSEDQDFGNYYCSVTPWVKSPTGSWQKEAEIHSKPVFITVKMDVLNAFKYP
modifications: bait human Fc-tagged dimer
B3: ADP144 (protein)
chain: MELRARGWWLLCAAAALVACARGDPASKSRSCGEVRQIYGAKGFSLSDVPQAEISGEHLRICPQGYTCCTSEMEENLANRSHAELETALRDSSRVLQAMLATQLRSFDDHFQHLLNDSERTLQATFPGAFGELYTQNARAFRDLYSELRLYYRGANLHLEETLAEFWARLLERLFKQLHPQLLLPDDYLDCLGKQAEALRPFGEAPRELRLRATRAFVAARSFVQGLGVASDVVRKVAQVPLGPECSRAVMKLVYCAHCLGVPGARPCPDYCRNVLKGCLANQADLDAEWRNLLDSMVLITDKFWGTSGVESVIGSVHTWLAEAINALQDNRDTLTAKVIQGCGNPKVNPQGPGPEEKRRRGKLAPRERPPSGTLEKLVSEAKAQLRDVQDFWISLPGTLCSEKMALSTASDDRCWNGMARGRYLPEVMGDGLANQINNPEVEVDITKPDMTIRQQIMQLKIMTNRLRSAYNGNDVDFQDASDDGSGSGSGDGCLDDLCSRKVSRKSSSSRTPLTHALPGLSEQEGQKTSAAS
modifications: bait human Fc-tagged dimer
B4: ADP380 (protein)
chain: VLEEVQQVRRSHQDFSRQREELGQGLQGVEQKVQSLQATFGTFESILRSSQHKQDLTEKAVKQGESEVSRISEVLQKLQNEILKDLSDGIHVVKDARERDFTSLENTVEERLTELTKSINDNIAIFTEVQKRSQKEINDMKAKVASLEESEGNKQDLKALKEAVKEIQTSAKSREWDMEALRSTLQTMESDIYTEVRELVSLKQEQQAFKEAADTERLALQALTEKLLRSEESVSRLPEEIRRLEEELRQLKSDSHGPKEDGGFRHSEAFEALQQKSQGLDSRLQHVEDGVLSMQVASARQTESLESLLSKSQEHEQRLAALQGRLEGLGSSEADQDGLASTVRSLGETQLVLYGDVEELKRSVGELPSTVESLQKVQEQVHTLLSQDQAQAARLPPQDFLDRLSSLDNLKASVSQVEADLKMLRTAVDSLVAYSVKIETNENNLESAKGLLDDLRNDLDRLFVKVEKIHEKV
modifications: bait human Fc-tagged dimer
B5: ADP361 (protein)
chain: MAPPQVLAFGLLLAAATATFAAAQEECVCENYKLAVNCFVNNNRQCQCTSVGAQNTVICSKLAAKCLVMKAEMNGSKLGRRAKPEGALQNNDGLYDPDCDESGLFKAKQCNGTSMCWCVNTAGVRRTDKDTEITCSERVRTYWIIIELKHKAREKPYDSKSLRTALQKEITTRYQLDPKFITSILYENNVITIDLVQNSSQKTQNDVDIADVAYYFEKDVKGESLFHSKKMDLTVNGEQLDLDPGQTLIYYVDEKAPEFSMQGLKAG
modifications: bait human Fc-tagged dimer
B6: ADP373 (protein)
chain: MAKASCLPLGFIVFLPAVLLLVAPPLPAADAAHEFTVYRMQQYDLQGQPYGTRNAVLNTEARTMAAEVLSRRCVLMRLLDFSYEQYQKALRQSAGAVVIILPRAMAAVPQDVVRQFMEIEPEMLAMETAVPVYFAVEDEALLSIYKQTQAASASQGSASAAEVLLRTATANGFQMVTSGVQSKAVSDWLIASVEGRLTGLGGEDLPTIVIVAHYDAFGVAPWLSLGADSNGSGVSVLLELARLFSRLYTYKRTHAAYNLLFFASGGGKFNYQGTKRWLEDNLDHTDSSLLQDNVAFVLCLDTVGRGSSLHLHVSKPPREGTLQHAFLRELETVAAHQFPEVRFSMVHKRINLAEDVLAWEHERFAIRRLPAFTLSHLESHRDGQRSSIMDVRSRVDSKTLTRNTRIIAEALTRVIYNLTEKGTPPDMPVFTEQMQIQQEQLDSVMDWLTNQPRAAQLVDKDSTFLSTLEHHLSRYLKDVKQHHVKADKRDPEFVFYDQLKQVMNAYRVKP
modifications: bait human Fc-tagged dimer
B7: ADP107 (protein)
chain: MGTKAQVERKLLCLFILAILLCSLALGSVTVHSSEPEVRIPENNPVKLSCAYSGFSSPRVEWKFDQGDTTRLVCYNNKITASYEDRVTFLPTGITFKSVTREDTGTYTCMVSEEGGNSYGEVKVKLIVLVPPSKPTVNIPSSATIGNRAVLTCSEQDGSPPSEYTWFKDGIVMPTNPKSTRAFSNSSYVLNPTTGELVFDPLSASDTGEYSCEARNGYGTPMTSNAVRMEAVERNVGV
modifications: bait human Fc-tagged dimer
B8: ADP280 (protein)
chain: TPPNAIVFTYGHLKVADMVKTGVIMNIIGVFCVFLAVNTWGRAIFDLDHFPDWANVTHIET
modifications: also: human Fc-tagged dimer
B9: ADP103 (protein)
chain: MAAALFVLLGFALLGTHGASGAAGFVQAPLSQQRWVGGSVELHCEAVGSPVPEIQWWFEGQGPNDTCSQLWDGARLDRVHIHATYHQHAASTISIDTLVEEDTGTYECRASNDPDRNHLTRAPRVKWVRAQAVVLVLEPGTVFTTVEDLGSKILLTCSLNDSATEVTGHRWLKGGVVLKEDALPGQKTEFKVDSDDQWGEYSCVFLPEPMGTANIQLHGPPRVKAVKSSEHINEGETAMLVCKSESVPPVTDWAWYKITDSEDKALMNGSESRFFVSSSQGRSELHIENLNMEADPGQYRCNGTSSKGSDQAIITLRVRSHL
modifications: bait human Fc-tagged dimer
B10: ADP098 (protein)
chain: RELPAQKWWHTGALYRIGDLQAFQGHGAGNLAGLKGRLDYLSSLKVKGLVLGPIHKNQKDDVAQTDLLQIDPNFGSKEDFDSLLQSAKKKSIRVILDLTPNYRGENSWFSTQVDTVATKVKDALEFWLQAGVDGFQVRDIENLKDASSFLAEWQNITKGFSEDRLLIAGTNSSDLQQILSLLESNKDLLLTSSYLSDSGSTGEHTKSLVTQYLNATGNRWCSWSLSQARLLTSFLPAQLLRLYQLMLFTLPGTPVFSYGDEIGLDAAALPGQPMEAPVMLWDESSFPDIPGAVSANMTVKGQSEDPGSLLSLFRRLSDQRSKERSLLHGDFHAFSAGPGLFSYIRHWDQNERFLVVLNFGDVGLSAGLQASDLPASASLPAKADLLLSTQPGREEGSPLELERLKLEPHEGLLLRFPYAA
modifications: bait human Fc-tagged dimer
B11: ADP276 (protein)
chain: DRGHLDYPRNPRREGSFPQGQLSMLQEKIDHLERLLAENNEIISNIRDSVINLSESVEDGPKSSQSNFSQGAGSHLLPSQLSLSVDTADCLFASQSGSHNSDVQMLDVYSLISFDNPDGGVWKQGFDITYESNEWDTEPLQVFVVPHSHNDPGWLKTFNDYFRDKTQYIFNNMVLKLKEDSRRKFIWSEISYLSKWWDIIDIQKKDAVKSLIENGQLEIVTGGWVMPDEATPHYFALIDQLIEGHQWLENNIGVKPRSGWAIDPFGHSPTMAYLLNRAGLSHMLIQRVHYAVKKHFALHKTLEFFWRQNWDLGSVTDILCHMMPFYSYDIPHTCGPDPKICCQFDFKRLPGGRFGCPWGVPPETIHPGNVQSRARMLLDQYRKKSKLFRTKVLLAPLGDDFRYCEYTEWDLQFKNYQQLFDYMNSQSKFKVKIQFGTLSDFFDALDKADETQRDKGQSMFPVLSGDFFTYADRDDHYWSGYFTSRPFYKRMDRIMESHLRAAEILYYFALRQAHKYKINKFLSSSLYTALTEARRNLGLFQHHDAITGTAKDWVVVDYGTRLFHSLMVLEKIIGNSAFLLILKDKLTYDSYSPDTFLEMDLKQKSQDSLPQKNIIRLSAEPRYLVVYNPLEQDRISLVSVYVSSPTVQVFSASGKPVEVQVSAVWDTANTISETAYEISFRAHIPPLGLKVYKILESASSNSHLADYVLYKNKVEDSGIFTIKNMINTEEGITLENSFVLLRFDQTGLMKQMMTKEDGKHHEVNVQFSWYGTTIKRDKSGAYLFLPDGNAKPYVYTTPPFVRVTHGRIYSEVTCFFDHVTHRVRLYHIQGIEGQSVEVSNIVDIRKVYNREIAMKISSDIKSQNRFYTDLNGYQIQPRMTLSKLPLQANVYPMTTMAYIQDAKHRLTLLSAQSLGVSSLNSGQIEVIMDRRLMQDDNRGLEQGIQDNKITANLFRILLEKRSAVNTEEEKKSVSYPSLLSHITSSLMNHPVIPMANKFSSPTLELQGEFSPLQSSLPCDIHLVNLRTIQSKVGNGHSNEAALILHRKGFDCRFSSKGTGLFCSTTQGKILVQKLLNKFIVESLTPSSLSLMHSPPGTQNISEINLSPMEISTFRIQLR
modifications: bait human Fc-tagged dimer
B12: ADP339 (protein)
chain: MASPFLVLAIGTCLTNSLVPEKEKDPKYWRDQAQETLKYALELQKLNTNVAKNVIMFLGDGMGVSTVTAARILKGQLHHNPGEETRLEMDKFPFVALSKTYNTNAQVPDSAGTATAYLCGVKANEGTVGVSAATERSRCNTTQGNEVTSILRWAKDAGKSVGIVTTTRVNHATPSAAYAHSADRDWYSDNEMPPEALSQGCKDIAYQLMHNIRDIDVIMGGGRKYMYPKNKTDVEYESDEKARGTRLDGLDLVDTWKSFKPRYKHSHFIWNRTELLTLDPHNVDYLLGLFEPGDMQYELNRNNVTDPSLSEMVVVAIQILRKNPKGFFLLVEGGRIDHGHHEGKAKQALHEAVEMDRAIGQAGSLTSSEDTLTVVTADHSHVFTFGGYTPRGNSIFGLAPMLSDTDKKPFTAILYGNGPGYKVVGGERENVSMVDYAHNNYQAQSAVPLRHETHGGEDVAVFSKGPMAHLLHGVHEQNYVPHVMAYAACIGANLGHCAPASS
modifications: bait human Fc-tagged dimer

molecular target: Circumsporozoite protein (CSP) (Plasmodium falciparum (isolate 3D7), UniProt Q7K740); assay: AVEXIS screen signal:noise (double-corrected)
Sequence (Q7K740 19-374): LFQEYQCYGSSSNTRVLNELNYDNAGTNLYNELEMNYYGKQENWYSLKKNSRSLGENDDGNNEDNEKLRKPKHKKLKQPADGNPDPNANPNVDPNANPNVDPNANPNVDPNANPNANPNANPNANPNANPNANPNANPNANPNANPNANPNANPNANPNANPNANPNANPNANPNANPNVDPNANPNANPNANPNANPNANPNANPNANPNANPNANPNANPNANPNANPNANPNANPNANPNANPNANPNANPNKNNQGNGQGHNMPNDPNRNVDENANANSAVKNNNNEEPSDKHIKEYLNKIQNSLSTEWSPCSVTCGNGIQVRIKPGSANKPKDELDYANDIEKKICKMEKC

Row | Binder | binding score
1 | B1 | 1.67
2 | B2 | 2.49
3 | B3 | 0.883
4 | B4 | 0.68
5 | B5 | 6.45
6 | B6 | 1.26
7 | B7 | 0.991
8 | B8 | 0.749
9 | B9 | 0.981
10 | B10 | 1.12
11 | B11 | 0.79
12 | B12 | 1.02
